{
  "source": "paper PMC3958483",
  "about": "“Fine Specificity and Molecular Competition in SLAM Family Receptor Signalling” (PLoS ONE, 2014)",
  "molecules": {"B1": {"name": "SHIP-2: SH2 domain containing phosphatase (protein)", "chain": "MASACGAPGPGGALGSQAPSWYHRDLSRAAAEELLARAGRDGSFLVRDSESVAGAFALCVLYQKHVHTYRILPDGEDFLAVQTSQGVPVRRFQTLGELIGLYAQPNQGLVCALLLPVEGEREPDPPDDRDASDGEDEKPPLPPRSGSTSISAPTGPSSPLPAPETPTAPAAESAPNGLSTVSHDYLKGSYGLDLEAVRGGASHLPHLTRTLATSCRRLHSEVDKVLSGLEILSKVFDQQSSPMVTRLLQQQNLPQTGEQELESLVLKLSVLKDFLSGIQKKALKALQDMSSTAPPAPQPSTRKAKTIPVQAFEVKLDVTLGDLTKIGKSQKFTLSVDVEGGRLVLLRRQRDSQEDWTTFTHDRIRQLIKSQRVQNKLGVVFEKEKDRTQRKDFIFVSARKREAFCQLLQLMKNKHSKQDEPDMISVFIGTWNMGSVPPPKNVTSWFTSKGLGKTLDEVTVTIPHDIYVFGTQENSVGDREWLDLLRGGLKELTDLDYRPIAMQSLWNIKVAVLVKPEHENRISHVSTSSVKTGIANTLGNKGAVGVSFMFNGTSFGFVNCHLTSGNEKTARRNQNYLDILRLLSLGDRQLNAFDISLRFTHLFWFGDLNYRLDMDIQEILNYISRKEFEPLLRVDQLNLEREKHKVFLRFSEEEISFPPTYRYERGSRDTYAWHKQKPTGVRTNVPSWCDRILWKSYPETHIICNSYGCTDDIVTSDHSPVFGTFEVGVTSQFISKKGLSKTSDQAYIEFESIEAIVKTASRTKFFIEFYSTCLEEYKKSFENDAQSSDNINFLKVQWSSRQLPTLKPILADIEYLQDQHLLLTVKSMDGYESYGECVVALKSMIGSTAQQFLTFLSHRGEETGNIRGSMKVRVPTERLGTRERLYEWISIDKDEAGAKSKAPSVSRGSQEPRSGSRKPAFTEASCPLSRLFEEPEKPPPTGRPPAPPRAAPREEPLTPRLKPEGAPEPEGVAAPPPKNSFNNPAYYVLEGVPHQLLPPEPPSPARAPVPSATKNKVAITVPAPQLGHHRHPRVGEGSSSDEESGGTLPPPDFPPPPLPDSAIFLPPSLDPLPGPVVRGRGGAEARGPPPPKAHPRPPLPPGPSPASTFLGEVASGDDRSCSVLQMAKTLSEVDYAPAGPARSALLPGPLELQPPRGLPSDYGRPLSFPPPRIRESIQEDLAEEAPCLQGGRASGLGEAGMSAWLRAIGLERYEEGLVHNGWDDLEFLSDITEEDLEEAGVQDPAHKRLLLDTLQLSK"}, "B2": {"name": "SHIP-1: SH2 domain containing phosphatase (protein)", "chain": "MVPCWNHGNITRSKAEELLSRTGKDGSFLVRASESISRAYALCVLYRNCVYTYRILPNEDDKFTVQASEGVSMRFFTKLDQLIEFYKKENMGLVTHLQYPVPLEEEDTGDDPEEDTVESVVSPPELPPRNIPLTASSCEAKEVPFSNENPRATETSRPSLSETLFQRLQSMDTSGLPEEHLKAIQDYLSTQLAQDSEFVKTGSSSLPHLKKLTTLLCKELYGEVIRTLPSLESLQRLFDQQLSPGLRPRPQVPGEANPINMVSKLSQLTSLLSSIEDKVKALLHEGPESPHRPSLIPPVTFEVKAESLGIPQKMQLKVDVESGKLIIKKSKDGSEDKFYSHKKILQLIKSQKFLNKLVILVETEKEKILRKEYVFADSKKREGFCQLLQQMKNKHSEQPEPDMITIFIGTWNMGNAPPPKKITSWFLSKGQGKTRDDSADYIPHDIYVIGTQEDPLSEKEWLEILKHSLQEITSVTFKTVAIHTLWNIRIVVLAKPEHENRISHICTDNVKTGIANTLGNKGAVGVSFMFNGTSLGFVNSHLTSGSEKKLRRNQNYMNILRFLALGDKKLSPFNITHRFTHLFWFGDLNYRVDLPTWEAETIIQKIKQQQYADLLSHDQLLTERREQKVFLHFEEEEITFAPTYRFERLTRDKYAYTKQKATGMKYNLPSWCDRVLWKSYPLVHVVCQSYGSTSDIMTSDHSPVFATFEAGVTSQFVSKNGPGTVDSQGQIEFLRCYATLKTKSQTKFYLEFHSSCLESFVKSQEGENEEGSEGELVVKFGETLPKLKPIISDPEYLLDQHILISIKSSDSDESYGEGCIALRLEATETQLPIYTPLTHHGELTGHFQGEIKLQTSQGKTREKLYDFVKTERDESSGPKTLKSLTSHDPMKQWEVTSRAPPCSGSSITEIINPNYMGVGPFGPPMPLHVKQTLSPDQQPTAWSYDQPPKDSPLGPCRGESPPTPPGQPPISPKKFLPSTANRGLPPRTQESRPSDLGKNAGDTLPQEDLPLTKPEMFENPLYGSLSSFPKPAPRKDQESPKMPRKEPPPCPEPGILSPSIVLTKAQEADRGEGPGKQVPAPRLRSFTCSSSAEGRAAGGDKSQGKPKTPVSSQAPVPAKRPIKPSRSEINQQTPPTPTPRPPLPVKSPAVLHLQHSKGRDYRDNTELPHHGKHRPEEGPPGPLGRTAMQ"}, "B3": {"name": "EAT-2: small SH2 domain containing adapter protein (protein)", "chain": "MDLPYYHGRLTKQDCETLLLKEGVDGNFLLRDSESIPGVLCLCVSFKNIVYTYRIFREKHGYYRIQTAEGSPKQVFPSLKELISKFEKPNQGMVVHLLKPIKRTSPSLRWRGLKLELETFVNSNSDYVDVLP", "modifications": "left off: His tag, end not stated, state not stated", "notes": "small SH2 domain containing adapter protein"}, "B4": {"name": "c-Src Tyrosine Kinase (CSK): SH2 domain containing protein pulled down by CD244 ITSM1 (protein)", "chain": "MSAIQAAWPSGTECIAKYNFHGTAEQDLPFCKGDVLTIVAVTKDPNWYKAKNKVGREGIIPANYVQKREGVKAGTKLSLMPWFHGKITREQAERLLYPPETGLFLVRESTNYPGDYTLCVSCDGKVEHYRIMYHASKLSIDEEVYFENLMQLVEHYTSDADGLCTRLIKPKVMEGTVAAQDEFYRSGWALNMKELKLLQTIGKGEFGDVMLGDYRGNKVAVKCIKNDATAQAFLAEASVMTQLRHSNLVQLLGVIVEEKGGLYIVTEYMAKGSLVDYLRSRGRSVLGGDCLLKFSLDVCEAMEYLEGNNFVHRDLAARNVLVSEDNVAKVSDFGLTKEASSTQDTGKLPVKWTAPEALREKKFSTKSDVWSFGILLWEIYSFGRVPYPRIPLKDVVPRVEKGYKMDAPDGCPPAVYEVMKNCWHLDAAMRPSFLQLREQLEHIKTHELHL"}, "B5": {"name": "SAP: small SH2 domain containing adapter protein (protein, UniProt O60880 1-128, looked up)", "SH2 domain-containing protein …": "MDAVAVYHGKISRETGEKLLLATGLDGSYLLRDSESVPGVYCLCVLYHGYIYTYRVSQTETGSWSAETAPGVHKRYFRKIKNLISAFQKPDQGIVIPLQYPVEKKSSARSTQGTTGIREDPDVCLKAP"}},
  "data": [
    {"test_system": "not listed separately", "experiment": "Pull-down with phosphorylated CD244 ITSM1 from NK cell lysates, LC-MS/MS", "assay_type": "binding", "conditions": "human NK cell lysates; compared with control phosphopeptide SHIP-1 Y865", "method": "For pull-down of associated proteins, streptavidin Sepharose (GE Healthcare) was pre-coated with saturating amounts of peptide or EAT-2. NK92 cells (4×10^8) were treated with 500 μM pervanadate for 15 minutes, then lysed in PBS, 1% Triton X-100, 1 mM sodium orthovanadate in the presence of mammalian protease inhibitor solution (Sigma). Lysates were pre-cleared by centrifugation, followed by incubation with streptavidin Sepharose. Peptide or EAT-2-coated streptavidin beads were incubated with NK92 lysates for 2 hours at 4°C with rotation. Beads were washed once with 15 ml ice cold PBS/1% (v/v) Triton X-100. Bound protein was eluted using 100 mM glycine-HCl pH 2.5.\nProtein samples were prepared for mass spectrometry as described previously. Briefly, eluted proteins were spun onto the membranes of Vivacon 500 filters (10,000 MWCO – Sartorius). Membranes were washed once with PBS then proteins were denatured with 8 M urea, reduced with 10 mM DTT in 25 mM ammonium bicarbonate buffer, followed by alkylation with 50 mM iodoacetamide. Proteins were then digested overnight with trypsin. Tryptic peptides were then eluted from the membrane and analyzed on an Ultimate 3000 HPLC-coupled Orbitrap XL mass spectrometer. Proteins were identified by liquid chromatography-coupled tandem mass-spectrometry (LC-MS/MS). Raw data files were converted to mzXML format using ReADW (v. 4.2.1) and submitted to the Central Proteomics Facilities Pipeline for database comparison and peptide identification. Searching against the International Protein Index (IPI) human protein sequence database for protein identification, protein and peptide hits were statistically validated by applying a 1% false discovery rate (FDR) by searching against a concatenated target/decoy database. Datasets were searched with variable peptide modifications for phosphotyrosine, phosphoserine, phosphothreonine, oxidation of methionine and deamination.\nProtein identification data were exported into ProteinCenter (v3.8.3013 – Thermo Fisher) for filtering and annotation. Results were filtered to remove any proteins with less than 3 unique peptides, less than 10 percent sequence coverage, or median protein probability scores less than 0.5. To establish sample specificity, any protein with at least 10-fold greater sequence coverage in one sample compared with the other was considered to be specific for that sample.\nSimilarly, differences in specificity of inhibitory SH2 domain containing proteins for ITSMs are relevant to understanding mechanisms of inhibition by ITSMs. We focused on CD244 ITSMs to establish general paradigms.", "values": [
      {"molecule": "B1", "pull-down by CD244 ITSM1": "pulled down by the ITSM peptide"},
      {"molecule": "B2", "pull-down by CD244 ITSM1": "pulled down by the ITSM peptide"},
      {"molecule": "B3", "pull-down by CD244 ITSM1": "identifying SAP and EAT-2"},
      {"molecule": "B4", "pull-down by CD244 ITSM1": "pulled down by the ITSM peptide"},
      {"molecule": "B5", "pull-down by CD244 ITSM1": "identifying SAP and EAT-2"}
    ]},
    {"molecular_target": "T1, EAT-2 (Homo sapiens, UniProt O14796)", "T1 sequence (O14796 1-132)": "B3 chain", "experiment": "EAT-2 expression in NK92 after RNA interference", "assay_type": "cell-based", "conditions": "shRNA, NK92 cells; from 0.44 μM", "method": "Lentiviral constructs expressing gene-specific shRNAs in vector pLKO.1 were obtained from Open Biosystems. […] As a non-targeting control, the hairpin sequence 5′-[…] was expressed in pLKO.1. Lentiviral particles were produced through polyethylenimine (PEI-Sigma) co-transfection of 293 T cells with pLKO.1 along with packaging vectors pMD2.G and pSPAX2 (Addgene; Didier Trono Laboratory). Virus was produced in RPMI 1640/10% heat-inactivated FCS for 48–72 hours. Viral supernatants were collected and NK92 cells were transduced twice overnight in the presence of 1000 U/ml IL-2. Cells with stable shRNA expression were selected using 3 μg/ml puromycin (Invitrogen) for 72 hours prior to use in functional assays.\nFor quantitation of protein expression, NK92 cell lysates were prepared using buffer (150 mM NaCl, 20 mM Tris-HCl pH 7.4, 10% glycerol, 2 mM EDTA, 10 mM NaF, 1 mM PMSF) containing 0.5% Triton X-100. Lysates were resolved by SDS-PAGE under reducing conditions using Novex gradient gels and transferred to nitrocellulose membranes for western blotting by standard protocols. […] SHP-2 levels in 10^5 cell equivalents were analysed in a similar manner with recombinant SHP-2 N+C as a standard (25, 50 and 100 ng) and anti-SHP-2 (Cell Signaling #3752). […] Quantitation of protein expression was performed using LI-COR Odyssey Sa software version 1.0. […]", "values": [
      {"molecule": "B3", "intracellular EAT-2 concentration after 50% knockdown": "approximately 0.2 μM"}
    ]}
  ]
}
